Test results: article PMC6179994

Biological target: full-length rabbit TRPV5 (transient receptor potential vanilloid 5) (rabbit) (UniProt Q9XSM3)
Test: cryo-EM structure; detergent solubilized TRPV5 (DMNG) incubated 1 h with 10 mM CaCl2 and rat CaM at 1:20 (TRPV5 tetramer:CaM), then SEC; map at 4.4 Å without applied symmetry

Chain of full-length rabbit TRPV5 (transient receptor potential vanilloid 5) (rabbit) (Q9XSM3 whole entry): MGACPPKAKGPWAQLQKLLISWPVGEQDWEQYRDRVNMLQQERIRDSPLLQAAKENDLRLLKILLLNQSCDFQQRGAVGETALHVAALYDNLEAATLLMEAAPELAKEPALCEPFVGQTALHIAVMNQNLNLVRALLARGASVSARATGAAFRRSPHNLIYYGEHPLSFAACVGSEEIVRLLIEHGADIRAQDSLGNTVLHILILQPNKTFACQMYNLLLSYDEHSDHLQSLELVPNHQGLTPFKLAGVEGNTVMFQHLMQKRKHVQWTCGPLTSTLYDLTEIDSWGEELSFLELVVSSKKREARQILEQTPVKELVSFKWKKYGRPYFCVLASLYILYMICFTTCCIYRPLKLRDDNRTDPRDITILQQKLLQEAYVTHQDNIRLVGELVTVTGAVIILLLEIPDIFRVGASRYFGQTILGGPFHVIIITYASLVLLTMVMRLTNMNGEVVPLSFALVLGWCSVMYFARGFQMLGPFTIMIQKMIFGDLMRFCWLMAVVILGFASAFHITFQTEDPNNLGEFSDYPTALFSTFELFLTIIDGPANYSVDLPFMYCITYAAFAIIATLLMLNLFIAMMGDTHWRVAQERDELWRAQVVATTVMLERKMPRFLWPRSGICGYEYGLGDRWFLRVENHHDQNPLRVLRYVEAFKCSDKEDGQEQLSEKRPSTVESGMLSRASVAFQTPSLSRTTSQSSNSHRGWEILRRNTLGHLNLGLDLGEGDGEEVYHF

“rat calmodulin (CaM), calcium-activated (from UniProt P0DP29 1-149) (natural protein)” gave a stoichiometry N (CaM per TRPV5 tetramer) of 1.
